# Experimental data published in the supplement of paper PMC10567573.
# B1: WDR41 (parent)
# chain: WTMQAYERNFWDPSPQLDTQQEIK
# Variants of: B1
# Assay: protein stability index of a GFP-peptide fusion (GPS, HEK-293T) (PSI 1-6); higher = more stable
# Conditions: c terminus: a fixed tail appended
# 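Note: lentivirally expressed fusions sorted by FACS into six bins by GFP to DsRed ratio, PSI derived from sequencing read proportions per bin multiplied by bin number.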
row,Variant,protein stability index
1,WTMQAYCRNFWDPSPQLDTQQEIK [E7C],1.77
2,WTMQAYHRNFWDPSPQLDTQQEIK [E7H],2.32
3,WTMQAYLRNFWDPSPQLDTQQEIK [E7L],3.28
4,WTMQAYPRNFWDPSPQLDTQQEIK [E7P],2.79
5,WTMQAYERNFWDPSPQMDTQQEIK [L17M],3.2
6,WTMQAYERNFWDPSPQPDTQQEIK [L17P],2.9
7,WTMQAYERNFWDPSPQFDTQQEIK [L17F],2.94
8,WTGQAYERNFWDPSPQLDTQQEIK [M3G],2.46
9,WTNQAYERNFWDPSPQLDTQQEIK [M3N],2.34
10,WTEQAYERNFWDPSPQLDTQQEIK [M3E],3.89
11,WTIQAYERNFWDPSPQLDTQQEIK [M3I],2.14
12,WTCQAYERNFWDPSPQLDTQQEIK [M3C],1.97
13,WTFQAYERNFWDPSPQLDTQQEIK [M3F],2.07
14,WTHQAYERNFWDPSPQLDTQQEIK [M3H],2.63
15,WTVQAYERNFWDPSPQLDTQQEIK [M3V],3.16
16,TTMQAYERNFWDPSPQLDTQQEIK [W1T],4.25
17,QTMQAYERNFWDPSPQLDTQQEIK [W1Q],4.81
18,NTMQAYERNFWDPSPQLDTQQEIK [W1N],4.46
19,GTMQAYERNFWDPSPQLDTQQEIK [W1G],4.73
20,WTMQAYERNFWDPSPQLDTQTEIK [Q21T],2.5
21,WTMQAYERNFWDPSPQLDTQHEIK [Q21H],1.99
22,WTMQAYERNFWDPSPQLDTQREIK [Q21R],2.84
23,WTMQAYERNFWDPSPQLDTQSEIK [Q21S],3.13
24,WTMQAYERNFWDPSPQLDTQYEIK [Q21Y],2.61

row,Variant,protein stability index
1,WTMQAYERNFWDPSPQLDTQAEIK [Q21A],2.39
2,WTMQAYERNFWDPYPQLDTQQEIK [S14Y],2.23
3,WTMQAYERNFWDPAPQLDTQQEIK [S14A],3.06
4,WTMQAYERNFWDPRPQLDTQQEIK [S14R],2.37
5,WTMQAYERNFWDPCPQLDTQQEIK [S14C],2.59
6,WTMQAYERNFWDPGPQLDTQQEIK [S14G],3.05
7,WTMQAYERNFWDPEPQLDTQQEIK [S14E],3.22
8,WTMQAYERNFWDPKPQLDTQQEIK [S14K],2.09
9,WTMQAYERNFWDPVPQLDTQQEIK [S14V],2.58
10,WTMQAYERNFWDPFPQLDTQQEIK [S14F],2.56
11,WTMQAYERNFWDPSPQLRTQQEIK [D18R],2.02
12,WTMQAYERNFWDPSPQLQTQQEIK [D18Q],2.34
13,WTMQAYEKNFWDPSPQLDTQQEIK [R8K],2.86
14,WTMQAYEQNFWDPSPQLDTQQEIK [R8Q],3.26
15,WTMQAYEVNFWDPSPQLDTQQEIK [R8V],2.57
16,WTMQAYEPNFWDPSPQLDTQQEIK [R8P],3.77
17,WVMQAYERNFWDPSPQLDTQQEIK [T2V],2.14
18,WEMQAYERNFWDPSPQLDTQQEIK [T2E],3.75
19,WRMQAYERNFWDPSPQLDTQQEIK [T2R],2.91
20,WLMQAYERNFWDPSPQLDTQQEIK [T2L],1.69
21,WIMQAYERNFWDPSPQLDTQQEIK [T2I],1.62
22,WQMQAYERNFWDPSPQLDTQQEIK [T2Q],2.89
23,WTMQAYERNMWDPSPQLDTQQEIK [F10M],4.03
24,WTMQAYERNCWDPSPQLDTQQEIK [F10C],3.52

row,Variant,protein stability index
1,WTMQAYERNKWDPSPQLDTQQEIK [F10K],3.72
2,WTMQAYERNVWDPSPQLDTQQEIK [F10V],3.68
3,WTMQAYERMFWDPSPQLDTQQEIK [N9M],1.45
4,WTMQAYERIFWDPSPQLDTQQEIK [N9I],2.04
5,WTMQAYERYFWDPSPQLDTQQEIK [N9Y],2.08
6,WTMQAYERNFWPPSPQLDTQQEIK [D12P],3.31
7,WTMQAYERNFWQPSPQLDTQQEIK [D12Q],1.37
8,WTMQAYERNFWDPSPQLDQQQEIK [T19Q],2.55
9,WTMQAYERNFWDPSPQLDCQQEIK [T19C],2.19
10,WTMQAYERNFWDPSPQLDIQQEIK [T19I],2
11,WTMQAYERNFWDPSPQLDHQQEIK [T19H],2.74
12,WTMQAYERNFWDPSPQLDFQQEIK [T19F],1.55
13,WTMQAYERNFWDPSPQLDVQQEIK [T19V],2.35
14,WTMQAYERNFWDPSPQLDMQQEIK [T19M],2.35
15,WTMQAYERNFVDPSPQLDTQQEIK [W11V],3.54
16,WTMQAYERNFEDPSPQLDTQQEIK [W11E],4.57
17,WTMQAYERNFFDPSPQLDTQQEIK [W11F],3.15
18,WTMQAYERNFSDPSPQLDTQQEIK [W11S],3.93
19,WTMQAYERNFGDPSPQLDTQQEIK [W11G],3.94
20,WTMQAYERNFMDPSPQLDTQQEIK [W11M],3.58
21,WTMQAYERNFNDPSPQLDTQQEIK [W11N],4.21
22,WTMQAYERNFWDPSPQLDTQQDIK [E22D],1.85
23,WTMQAYERNFWDPSPQLDTQQRIK [E22R],2.15
24,WTMQAYERNFWDPSPQLDTQQQIK [E22Q],2.1

row,Variant,protein stability index
1,WTMQAYERNFWDPSPQLDTQQVIK [E22V],2.36
2,WTMQAYERNFWDPSPQLDTQQTIK [E22T],2.33
3,WTMQAYERNFWDPSPQLDTQQHIK [E22H],1.8
4,WTMQAYERNFWDPSPQLDTQQFIK [E22F],2.11
5,WTMQAYERNFWDPSPQLDTQQSIK [E22S],2.96
6,WTMQAYERNFWDPSPQLDTQQNIK [E22N],2.41
7,WTMFAYERNFWDPSPQLDTQQEIK [Q4F],2.38
8,WTMRAYERNFWDPSPQLDTQQEIK [Q4R],1.8
9,WTMQAFERNFWDPSPQLDTQQEIK [Y6F],2.58
10,WTMQAPERNFWDPSPQLDTQQEIK [Y6P],2.95
11,WTMQAMERNFWDPSPQLDTQQEIK [Y6M],3.17
12,WTMQANERNFWDPSPQLDTQQEIK [Y6N],2.93
13,WTMQADERNFWDPSPQLDTQQEIK [Y6D],3.34
14,WTMQAHERNFWDPSPQLDTQQEIK [Y6H],1.92
15,WTMQAYERNFWDDSPQLDTQQEIK [P13D],3.07
16,WTMQAYERNFWDRSPQLDTQQEIK [P13R],3.01
17,WTMQAYERNFWDISPQLDTQQEIK [P13I],2.6
18,WTMQAYERNFWDKSPQLDTQQEIK [P13K],3.44
19,WTMQAYERNFWDVSPQLDTQQEIK [P13V],2.04
20,WTMQAYERNFWDWSPQLDTQQEIK [P13W],1.76
21,WTMQAYERNFWDTSPQLDTQQEIK [P13T],1.56
22,WTMQAYERNFWDLSPQLDTQQEIK [P13L],3.3
